B1: CPEB3 Ribozyme (parent)
chain: UAACAGGGGGCCACAGCAGAAGCGUUCACGUCGCAGCCCCUGUCAGAUUCUGGUGAAUCUGCGAAUUCUGCUGUAUAUCUC

Variants of: B1
Assay: self-cleavage, relative activity (ratio to wild type); higher = more cleavage; in vitro, sequencing
Outline: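 CPEB3 self-cleaving ribozyme mutant libraries were made by rounds of error-prone PCR, barcoded, and transcribed in vitro with T7 RNA polymerase for 5 hours at 37°C. Cleavage occurred during transcription and a 15 min DNase I step before EDTA stop. RNAs were reverse transcribed with template switching and Illumina-sequenced, with DNA sequencing mapping barcodes to variants. Relative activity is the variant's cleaved/total read fraction divided by wild type's (minimum 5 reads), averaged across three batches.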

Variant	self-cleavage
UAACAGGGGGCCAAAGCAGAAGCCUUCACGUCGCAGCCCCUGUCAGAUUCUGGUGAAUCUGCGAAUUCUGCUGUAUAUCUC [C14A G24C]	0.15
UAACAGGGGGCCAGAGCAGAAGCGUUCACGUCGCAGCCCCUGUCAGAUUCUGGUGAAUCUGCGAAUUCUGCCGUAUAUCUC [C14G U72C]	0.69
UAACAGGGGGCCAGAGCAGUAGCGUUCACGUCGCAGCCCCUGUCAGAUUCUGGUGAAUCUGCGAAUUCUGCUGUAUAUCUC [C14G A20U]	0.26
UAACAGGGGGCCAAAGCAGAAGCGUUCACGUCGCAGCCCCUGUCAGAUUCUGGAGAAUCUGCGAAUUCUGCUGUAUAUCUC [C14A U54A]	1.19
UAACAGGGGGCCAAAGCAGAAGCGUUCACGUCGCAGCCCCUGUCAGAUUCUGGGGAAUCUGCGAAUUCUGCUGUAUAUCUC [C14A U54G]	1.21
UAACAGGGGGCCAUAGCAGAAGCGUUCACGUCGCGGCCCCUGUCAGAUUCUGGUGAAUCUGCGAAUUCUGCUGUAUAUCUC [C14U A35G]	1.38
UAACAGGGGGCCAUAGCAGAAGCGUUCACGUCGCCGCCCCUGUCAGAUUCUGGUGAAUCUGCGAAUUCUGCUGUAUAUCUC [C14U A35C]	1.11
UAACAGGGGGCCAUAGCAGAAGCGUUCACGUCGCAGCCCCUGUCAGAUUCUGGUGAAUCUGCGAAUUCUGCUGUAUAUCUC [C14U]	1.15
UAACAGGGGGCCAGAGCAGAAGCGUUCACGUCGCAGCCCCUGUCAGAUUCUGGUGAAUCUGCGAAUUCUGCUGUAUAUCUC [C14G]	1.08
UAACAGGGGGCCAAAGCAGAAGCGUUCACGUCGCAGCCCCUGUCAGAUUCUGGUGAAUCUGCGAAUUCUGCCGUAUAUCUC [C14A U72C]	1.22
UAACAGGGGGCCAAAGCAAAAGCGUUCACGUCGCAGCCCCUGUCAGAUUCUGGUGAAUCUGCGAAUUCUGCUGUAUAUCUC [C14A G19A]	0.29
UAACAGGGGGCCAUAGCAGUAGCGUUCACGUCGCAGCCCCUGUCAGAUUCUGGUGAAUCUGCGAAUUCUGCUGUAUAUCUC [C14U A20U]	0.4
UAACAGGGGGCCAUAGCAGGAGCGUUCACGUCGCAGCCCCUGUCAGAUUCUGGUGAAUCUGCGAAUUCUGCUGUAUAUCUC [C14U A20G]	1.19
UAACAGGGGGCCAAAGCAGAAGCGUUCACGUCGCAGCCCCUGUCAGAUUCUGGUGAAUCUGCGAAUUCUGCUGUAUACCUC [C14A U78C]	1.07
UAACAGGGGGCCAAAGCAGAAGCGUUCACGUCGCAGCCCCUGUCAGAUCCUGGUGAAUCUGCGAAUUCUGCUGUAUAUCUC [C14A U49C]	0.23
UAACAGGGGGCCAGAGCAGAGGCGUUCACGUCGCAGCCCCUGUCAGAUUCUGGUGAAUCUGCGAAUUCUGCUGUAUAUCUC [C14G A21G]	0.45
UAACAGGGGGCCAGAGCAGAUGCGUUCACGUCGCAGCCCCUGUCAGAUUCUGGUGAAUCUGCGAAUUCUGCUGUAUAUCUC [C14G A21U]	0.16
UAACAGGGGGCCAAAGCAGAAGCGUUCACGUCGCAGCCCCUGUCAGAUUCUGGUGAAUCUGCGAAUUCUGCUGUACAUCUC [C14A U76C]	0.94
UAACAGGGGGCCAGAGCAGAAGCGUUCACGUCGCAGCCCCUGUCAGAUCCUGGUGAAUCUGCGAAUUCUGCUGUAUAUCUC [C14G U49C]	0.33
UAACAGGGGGCCAAAGCAGAAGCGUUCACGUCGCAGCCCCUGUCAGAUUCUGGUGAAUCUGCGAAUUCUGCUUUAUAUCUC [C14A G73U]	1.26
UAACAGGGGGCCAAAGCAGAAGCGUUCACGUCGCAGCCCCUGUCAGAUUCUGGUGAAUCCGCGAAUUCUGCUGUAUAUCUC [C14A U60C]	0.29
UAACAGGGGGCCAGAGCAGAAGCGUUCACGUCGCAGCCCCUGUCAGAUUCUGGUGAAUCUGCGAAUUCUGCUGCAUAUCUC [C14G U74C]	0.89
UAACAGGGGGCCAAAGCAGAAGCGUCCACGUCGCAGCCCCUGUCAGAUUCUGGUGAAUCUGCGAAUUCUGCUGUAUAUCUC [C14A U26C]	0.63

Variant	self-cleavage
UAACAGGGGGCCAGAGCAGAAGCGUUCACGUCGCAGCCCCUGUCAGAUUCUGGUGAAUCUACGAAUUCUGCUGUAUAUCUC [C14G G61A]	0.42
UAACAGGGGGCCAUAGCAGAAGCGUUCUCGUCGCAGCCCCUGUCAGAUUCUGGUGAAUCUGCGAAUUCUGCUGUAUAUCUC [C14U A28U]	1.21
UAACAGGGGGCCAUAGCAGAAGCGUUCGCGUCGCAGCCCCUGUCAGAUUCUGGUGAAUCUGCGAAUUCUGCUGUAUAUCUC [C14U A28G]	0.76
UAACAGGGGGCCAAAGCAGAAGCGUUCACGUCGCAGCCCCUGACAGAUUCUGGUGAAUCUGCGAAUUCUGCUGUAUAUCUC [C14A U43A]	1.24
UAACAGGGGGCCAAAGCAGAAGCGUUCACGUCGCAGCCCCUGCCAGAUUCUGGUGAAUCUGCGAAUUCUGCUGUAUAUCUC [C14A U43C]	0.83
UAACAGGGGGCCAGAGCAGAAGCGUUCACGUCGCAGCCCGUGUCAGAUUCUGGUGAAUCUGCGAAUUCUGCUGUAUAUCUC [C14G C40G]	0.1
UAACAGGGGGCCAAAGGAGAAGCGUUCACGUCGCAGCCCCUGUCAGAUUCUGGUGAAUCUGCGAAUUCUGCUGUAUAUCUC [C14A C17G]	0.44
UAACAGGGGGCCAAAGCAGAAGCGUUCACGUCGCAGCCCCUGUCAGAUUCUGGUGAAUCUGCGAAUUCUGCUGCAUAUCUC [C14A U74C]	1.23
UAACAGGGGGCCAAAGCAGAAGCGUUCACGUCGCAGCCCCUGUCAGAUUCUGGUGAAUCUGCGAAUUCUGCUGAAUAUCUC [C14A U74A]	1.25
UAACAGGGGGCCAGAGCAGAAGCGUUCAAGUCGCAGCCCCUGUCAGAUUCUGGUGAAUCUGCGAAUUCUGCUGUAUAUCUC [C14G C29A]	0.87
UAACAGGGGGCCAGAGCAGAAGCGUUCACGUCGCAGCCCCUGUCAGAUUCUGGCGAAUCUGCGAAUUCUGCUGUAUAUCUC [C14G U54C]	1.03
UAACAGGGGGCCAGAGCAGAAGCGUUCACGUCGCAGCCCCUGUCAGACUCUGGUGAAUCUGCGAAUUCUGCUGUAUAUCUC [C14G U48C]	0.47
UAACAGGGGGCCAGAGCAGAAGCGUUCACGUCGCAGCCCCUGUCAGAUUCUGGUGGAUCUGCGAAUUCUGCUGUAUAUCUC [C14G A56G]	1
UAACAGGGGGCCAAAGCAGAAGCGUUCACGUCGCAGCCCCUGUCAGAUUCUGGUGAAUCUGCGAAUUCUUCUGUAUAUCUC [C14A G70U]	0.22
UAACAGGGGGCCAGCGCAGAAGCGUUCACGUCGCAGCCCCUGUCAGAUUCUGGUGAAUCUGCGAAUUCUGCUGUAUAUCUC [C14G A15C]	0.37
UAACAGGGGGCCAGGGCAGAAGCGUUCACGUCGCAGCCCCUGUCAGAUUCUGGUGAAUCUGCGAAUUCUGCUGUAUAUCUC [C14G A15G]	0.79
UAACAGGGGGCCAAAGCAGAAGCGCUCACGUCGCAGCCCCUGUCAGAUUCUGGUGAAUCUGCGAAUUCUGCUGUAUAUCUC [C14A U25C]	0.21
UAACAGGGGGCCAAAGCAGAAGCGUUCACGUCGCAGCCCCUGUCAGAUUCUGGUGAAUCUGCGAAUCCUGCUGUAUAUCUC [C14A U67C]	0.14
UAACAGGGGGCCAGAGCAGAAGCGUUCACGUCGCAGCCCCCGUCAGAUUCUGGUGAAUCUGCGAAUUCUGCUGUAUAUCUC [C14G U41C]	1.14
UAACAGGGGGCCAGAGCAGAAGCGUUCACGUCGCGGCCCCUGUCAGAUUCUGGUGAAUCUGCGAAUUCUGCUGUAUAUCUC [C14G A35G]	1.24
UAACAGGGGGCCAGAGCAGAAGCGUUCACGUCGCAGCCCCUGUCAGAUUCUGGUGAAUCUGCGACUUCUGCUGUAUAUCUC [C14G A65C]	0.32
UAACAGGGGGCCAGAGCAGAAGCGUUCACGUCGCAGCCCCUGUCAGAUUCUGGUGAAUCUGCGAUUUCUGCUGUAUAUCUC [C14G A65U]	0.26
UAACAGGGGGCCAUAGCGGAAGCGUUCACGUCGCAGCCCCUGUCAGAUUCUGGUGAAUCUGCGAAUUCUGCUGUAUAUCUC [C14U A18G]	0.82

Variant	self-cleavage
UAACAGGGGGCCAUAGCUGAAGCGUUCACGUCGCAGCCCCUGUCAGAUUCUGGUGAAUCUGCGAAUUCUGCUGUAUAUCUC [C14U A18U]	0.44
UAACAGGGGGCCAGAGCAGAAGCGUUCACGUCGCAGCCCCUGUCAGAUUCUGGUGAAUCUGCGAACUCUGCUGUAUAUCUC [C14G U66C]	0.29
UAACAGGGGGCCAAAGCAGAAGCGUUCACGUCGCAGCCCCUGUCAGAUUCUGAUGAAUCUGCGAAUUCUGCUGUAUAUCUC [C14A G53A]	1.38
UAACAGGGGGCCAAAGCAGAAGCGUUCACGUCGCAGCCCCUGUCAGAUUCUGGUGAAUCUGCGAACUCUGCUGUAUAUCUC [C14A U66C]	0.4
UAACAGGGGGCCAGAGCAGAAGCGCUCACGUCGCAGCCCCUGUCAGAUUCUGGUGAAUCUGCGAAUUCUGCUGUAUAUCUC [C14G U25C]	0.17
UAACAGGGGGCCAGAGCAGAAGCGUUCACGUCGCAGCCCCUGUCAGAUUCUGAUGAAUCUGCGAAUUCUGCUGUAUAUCUC [C14G G53A]	1.19
UAACAGGGGGCCAAAGCAGAAGCGUUCACGUCGCAGCCCCUAUCAGAUUCUGGUGAAUCUGCGAAUUCUGCUGUAUAUCUC [C14A G42A]	0.09
UAACAGGGGGCCAAAGCAGAAGCGUUCACGUCGCAGCCCCUGUCAGAUUCUGGUGAAUCUGCUAAUUCUGCUGUAUAUCUC [C14A G63U]	1.14
UAACAGGGGGCCAAAGCAGAAGCGUUCACGUCGCAGCCCCUGUCAGAUUCUGGUGAAUCUGCAAAUUCUGCUGUAUAUCUC [C14A G63A]	0.93
UAACAGGGGGCCAUAGCAGAGGCGUUCACGUCGCAGCCCCUGUCAGAUUCUGGUGAAUCUGCGAAUUCUGCUGUAUAUCUC [C14U A21G]	0.78
UAACAGGGGGCCAAAGCAGAAGCGUUCACGUCGCAGCGCCUGUCAGAUUCUGGUGAAUCUGCGAAUUCUGCUGUAUAUCUC [C14A C38G]	0.19
UAACAGGGGGCCAAAGCAGAAGCGUUCACGUCGCAGCCCCUGUCAGAUUCUGGUGAAUCUGCGAAUUCUGCUGUUUAUCUC [C14A A75U]	1.23
UAACAGGGGGCCAGAGCAGAAGCGUUCACGUCGCAGCCCCUGUCAGAUUCCGGUGAAUCUGCGAAUUCUGCUGUAUAUCUC [C14G U51C]	1.16
UAACAGGGGGCCAAAGCAGAAGCGUUCACGUCGCAGCCCCUGUCAGAUUCCGGUGAAUCUGCGAAUUCUGCUGUAUAUCUC [C14A U51C]	1.04
UAACAGGGGGCCAAAGCAGAAGCGUUCACGUCGCAGCCCCUGUCAGAUUCAGGUGAAUCUGCGAAUUCUGCUGUAUAUCUC [C14A U51A]	1.1
UAACAGGGGGCCAAAGCAGAAGCGUUCACGUAGCAGCCCCUGUCAGAUUCUGGUGAAUCUGCGAAUUCUGCUGUAUAUCUC [C14A C32A]	0.2
UAACAGGGGGCCAAAGCAGAAGCGUUCACGUUGCAGCCCCUGUCAGAUUCUGGUGAAUCUGCGAAUUCUGCUGUAUAUCUC [C14A C32U]	0.21
UAACAGGGGGCCAAAGCAGAAGCGUUCACGUCGCAGCCCCUGUCAGAUUCUGGUGAAUCUGCGAAUUCCGCUGUAUAUCUC [C14A U69C]	0.4
UAACAGGGGGCCAAAGCAGAAGCGUUCACGUCGCAGCCCCUGUCAGAUUCUGGUGAAUCUGCGAAUUCAGCUGUAUAUCUC [C14A U69A]	0.48
UAACAGGGGGCCAAAGCAGAAGCGUUCACGUCGCAGCCCCCGUCAGAUUCUGGUGAAUCUGCGAAUUCUGCUGUAUAUCUC [C14A U41C]	1.22
UAACAGGGGGCCAUUGCAGAAGCGUUCACGUCGCAGCCCCUGUCAGAUUCUGGUGAAUCUGCGAAUUCUGCUGUAUAUCUC [C14U A15U]	1.07
UAACAGGGGGCCAUGGCAGAAGCGUUCACGUCGCAGCCCCUGUCAGAUUCUGGUGAAUCUGCGAAUUCUGCUGUAUAUCUC [C14U A15G]	1.13

From the RNAGym collection of RNA variant scans (doi:10.1093/nar/gkz1192)
